Measured values published in patent publication US20240117030A1 (Pfizer, published 2024).
Changes are numbered by the printed parent chain.

Tests used:
human IL-13 [1] = biological target: T1, human IL-13 (human, UniProt P35225 35-146); experiment: cell-based or functional assay
human IL-13 [2] = biological target: T1, human IL-13; experiment: cell-based or functional assay; remark: listed apart in the source
mouse IL-13 [3] = biological target: T2, mouse IL-13 (mouse, UniProt P20109 26-131, limits assumed); experiment: ELISA: competition with biotinylated human IL-13 for binding to IL13-0001
T2 construct: also called mu IL-13
T2 sequence (looked up): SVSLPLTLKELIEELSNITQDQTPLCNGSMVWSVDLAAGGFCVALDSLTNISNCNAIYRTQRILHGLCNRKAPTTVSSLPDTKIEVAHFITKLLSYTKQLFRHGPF
Description: (§1) Recombinant human, mouse, rat, and dog IL 13 were purchased from R&D Systems (Minneapolis, MN). Recombinant sheep and rabbit IL-13 were produced by Pfizer Global Biotechnologies (PGBT, Cambridge, MA). Recombinant cynomolgus monkey IL 13 was purchased from Sino Biological (Beijing, China).

dog IL-13 = biological target: T3, dog IL-13 (dog, UniProt Q9N0W9 19-131, limits assumed); experiment: as above
T3 sequence (looked up): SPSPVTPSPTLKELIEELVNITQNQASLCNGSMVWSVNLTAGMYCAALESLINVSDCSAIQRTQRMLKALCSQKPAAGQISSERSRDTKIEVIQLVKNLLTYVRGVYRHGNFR
Description: as §1

cynomolgus monkey IL-13 [4] = biological target: T4, cynomolgus monkey IL-13 (cynomolgus monkey, UniProt Q0PW92 19-132); experiment: as above
T4 construct: also called cy IL-13; cyno IL-13; not shown: N-terminal FLAG tag of the Pfizer-made protein
T4 sequence (Q0PW92 entry or part of it limits assumed): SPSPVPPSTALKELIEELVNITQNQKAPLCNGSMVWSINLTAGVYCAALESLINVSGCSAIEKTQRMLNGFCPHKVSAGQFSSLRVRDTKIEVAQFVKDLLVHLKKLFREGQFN

human IL-13 [5] = biological target: T1, human IL-13; experiment: SPR 37°C, antibody captured by anti-human IgG, human IL-13 1.56-50 nM
Protocol: The affinity values (KD) were determined using Surface Plasmon Resonance (SPR) for 10 lead variants identified from bioassay screening.

cynomolgus monkey IL-4 = biological target: T5, cynomolgus monkey IL-4 (cynomolgus monkey, UniProt P79339 25-153); experiment: KinExA, fixed antigen
T5 construct: mature; also called cy IL-4; cyno IL-4
T5 sequence (looked up): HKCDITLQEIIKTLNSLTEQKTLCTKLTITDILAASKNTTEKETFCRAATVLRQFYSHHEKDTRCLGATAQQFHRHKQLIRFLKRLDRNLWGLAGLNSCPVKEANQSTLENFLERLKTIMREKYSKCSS
Protocol: (§2) Samples were prepared in PBS containing 0.1% sodium azide and 1.0 mg/ml BSA. The fixed antigen assay method was used to determine binding affinity. […] Each trispecific and IL-4 cytokine were equilibrated for at least 72 hours at room temperature, then passed through a flow cell containing Polymethylmethacrylate (PMMA) beads coated with anti-hIL-4 Ab-0002 (Pfizer) that contains the same IL-4 binding domain as the trispecifics. […] Data analysis was performed with KinExA Pro software version 4.3.11 (Sapidyne). […] The ‘drift correction’ fitting option was used when responses varied between replicate injections. Two curves were obtained in independent experiments and analyzed using the ‘n-curve analysis’ tool to obtain global best fit values for the KD and active concentration of IL-4 cytokine. The software reports each best fit value along with a 95% confidence interval.
(§3) Samples were prepared in PBS containing 0.1% sodium azide and 1.0 mg/ml BSA. A fixed antigen assay method was used to determine binding affinity.

cynomolgus monkey IL-13 [6] = biological target: T4, cynomolgus monkey IL-13; experiment: KinExA, fixed antigen
Protocol: as §2, §3

human IL-4 = biological target: T6, human IL-4 (human, UniProt P05112 25-153); experiment: cell-based or functional assay
T6 sequence (looked up): T5 sequence (looked up) with K26E, I29V, L33F

human IL-13 [7] = biological target: T1, human IL-13; experiment: cell-based or functional assay; remark: listed apart in the source
cynomolgus monkey IL-13 [8] = biological target: T4, cynomolgus monkey IL-13; experiment: cell-based or functional assay
mouse IL-4 = biological target: T7, mouse IL-4 (mouse, UniProt P07750 23-140); experiment: SPR (Biacore 8K+), trispecific captured on anti-human Fc on a CM5 chip, 200 nM IL-4 injected for 60 s
T7 construct: also called mu IL-4
T7 sequence (looked up): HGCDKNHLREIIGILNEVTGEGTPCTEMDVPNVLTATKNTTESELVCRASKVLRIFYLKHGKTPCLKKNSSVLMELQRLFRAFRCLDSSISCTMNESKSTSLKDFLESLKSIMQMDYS
Protocol: (§4) All experiments were performed using a Biacore 8K+instrument (GE HealthCare, Marlborough, MA). Anti-human Fc (Jackson Immunoresearch) or anti-mouse Fc (GE HealthCare, Marlborough, MA) was immobilized on a CM5 sensor chip using a standard amine coupling protocol provided by GE HealthCare. […] The association and dissociation phases were 60 seconds and 300 seconds, respectively. At the end of the dissociation phase, the surface containing anti-human or anti-mouse Fc was regenerated using one 30 second pulse of 3M MgCl₂ followed by one 30 second pulse of 10 mM glycine pH 1.7.

rat IL-4 = biological target: T8, rat IL-4 (rat, UniProt P20096 25-147, limits assumed); experiment: as above
T8 construct: also called rt IL-4
T8 sequence (looked up): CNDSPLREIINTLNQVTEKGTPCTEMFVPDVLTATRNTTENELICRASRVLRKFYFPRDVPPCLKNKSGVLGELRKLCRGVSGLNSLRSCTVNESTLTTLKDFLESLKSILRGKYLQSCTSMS
Protocol: as §4

mouse IL-13 [9] = biological target: T2, mouse IL-13; experiment: SPR (Biacore 8K+), trispecific captured on anti-human Fc on a CM5 chip, 200 nM IL-13 injected for 60 s
Protocol: (§5) All experiments were performed using a Biacore 8K+ instrument (GE HealthCare, Marlborough, MA). Anti-human Fc (Jackson Immunoresearch) or anti-mouse Fc (GE HealthCare, Marlborough, MA) was immobilized on a CM5 sensor chip using a standard amine coupling protocol provided by GE HealthCare. […] The association and dissociation phases were 60 seconds and 300 seconds, respectively. At the end of the dissociation phase, the surface containing anti-human or anti-mouse Fc was regenerated using one 30 second pulse of 3M MgCl₂ followed by one 30 second pulse of 10 mM glycine pH 1.7.

rat IL-13 = biological target: T9, rat IL-13 (rat, UniProt P42203 19-131, limits assumed); experiment: as above
T9 construct: also called rt IL-13
T9 sequence (looked up): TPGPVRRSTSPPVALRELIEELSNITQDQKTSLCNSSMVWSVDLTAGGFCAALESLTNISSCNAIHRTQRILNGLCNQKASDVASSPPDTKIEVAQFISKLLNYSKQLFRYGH
Protocol: as §5

murine IL-33 = biological target: T10, murine IL-33 (mouse, UniProt Q8BVZ5 109-266); experiment: SPR (Biacore T-200, 37 C, buffer with 3 mM DTT), trispecific captured on Protein A/G on a CM5 chip, 200 nM IL-33 injected for 60 s (concentration from Example 75)
T10 construct: also called mouse IL-33 WT
T10 sequence (looked up): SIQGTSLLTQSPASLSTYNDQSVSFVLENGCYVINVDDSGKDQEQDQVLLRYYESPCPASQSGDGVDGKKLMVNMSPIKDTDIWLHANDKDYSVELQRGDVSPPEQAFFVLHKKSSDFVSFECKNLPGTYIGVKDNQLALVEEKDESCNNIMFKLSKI
Protocol: (§6) Experiments were done at 37° C. with a collection rate of 10 Hz using HBS-EP+ pH 7.4, containing 3 mM DTT as running and dilution buffer. […] An anti-rat and mouse positive control antibody M36 (Pfizer, L4295010-051) diluted to 10 μgs/mL was captured on flow cell 2 for 60 sec at 10 μLs/min. Flow cell 1 was used as a reference. Binding was evaluated by injecting 200 nM dilutions of each cytokine over all 4 flow cells for 60 sec at 50 μL/min followed by a 300 sec dissociation. The surface was regenerated with a single 60 sec injection of 10 mM Glycine pH 1.5 at 50 μL/min. The data was double referenced and an overlay of the resulting sensorgrams (FIG. 39) was prepared using Biacore T-200 Analysis Software version 3.2.

rat IL-33 = biological target: T11, rat IL-33 (rat, UniProt Q66H70 109-264, limits assumed); experiment: as above
T11 construct: also called rat IL-33 WT
T11 sequence (looked up): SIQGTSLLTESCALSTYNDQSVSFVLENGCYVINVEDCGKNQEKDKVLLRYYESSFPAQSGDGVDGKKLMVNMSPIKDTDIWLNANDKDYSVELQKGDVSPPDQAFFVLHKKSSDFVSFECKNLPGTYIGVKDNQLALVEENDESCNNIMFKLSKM
Protocol: as §6

T1 sequence (P35225 35-146 limits assumed, form in doubt): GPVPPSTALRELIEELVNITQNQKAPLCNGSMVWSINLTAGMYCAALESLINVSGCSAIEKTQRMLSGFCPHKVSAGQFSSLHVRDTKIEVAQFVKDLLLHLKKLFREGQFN

B1: IL13-0001 (antibody, human IgG1, kappa, V domains shown)
VH: EVQLVESGGGLVQPGGSLRLSCAASGFTFSSYAMSWVRQAPGKGLEWVASISSGDTTYYPDSVKGRFTISRDNAKNSLYLQMNSLRAEDTAVYYCARNEGYYFGLTLWGQGTLVTVSS
VL: DIQMTQSPSSLSASVGDRVTITCKASESVDHFGWSLVHWYQQKPGKAPKLLIYRASNLESGVPSRFSGSGSGTDFTLTISSLQPEDFATYYCQQSNEDPWTFGGGTKVEIKR
notes: also called IL13433-0001; 1RVHC9-VLA4
Q: Which results are given for B1?
A: CD23: Fold bioactivity relative to IL13-0001 (human IL-13 [1]): 1 fold; CD23: Fold bioactivity relative to IL13-1307 (human IL-13 [1]): 29.1 fold; CD23 IC50 [pM] (human IL-13 [1]): 10.5 pM; pSTAT6: Fold bioactivity relative to IL13-0001 (human IL-13 [1]): 1 fold; pSTAT6: Fold bioactivity relative to IL13-1307 (human IL-13 [1]): 1.5 fold; pSTAT6 IC50 [pM] (human IL-13 [1]): 92 pM; CD23: Fold versus IL13-0001 (human IL-13 [2]): 1 fold; CD23 IC50 [pM] Ave. n = 2 (human IL-13 [2]): 6 pM; binding result (mouse IL-13 [3]): no binding; binding result (dog IL-13): no binding; binding result (cynomolgus monkey IL-13 [4]): binds; Kd (human IL-13 [5]): 57.7 pM

B2: IL13433-1258 (trispecific antibody)
heavy: EVQLVESGGGLVQPGGSLRLSCAASGFTFSSYWMYWVRQAPGKGLEWVAAITPNAGEDYYPESVKGRFTISRDNAKNSLYLQMNSLRAEDTAVYYCARGQYYYTKYSLGYWGQGTLVTVSSASTKGPSVFPLAPSSKSTSGGTAALGCLVKDYFPEPVTVSWNSGALTSGVHTFPAVLQSSGLYSLSSVVTVPSSSLGTQTYICNVNHKPSNTKVDKKVEPKSCRKTHTCPPCPAPEAAGAPSVFLFPPKPKDTLMISRTPEVTCVVVDVSHEDPEVKFNWYVDGVEVHNAKTKPREEQYNSTYRVVSVLTVLHQDWLNGKEYKCKVSNKALPAPIEKTISKAKGQPREPQVYTLPPSREEMTKNQVSLTCLVKGFYPSDIAVEWESNGQPENNYKTTPPVLDSDGSFFLYSRLTVDKSRWQQGNVFSCSVLHEALHSHYTQKSLSLSPGK
chain 1: DIQMTQSPSSLSASVGDRVTITCKASESVDHFGWSLVHWYQQKPGKAPKLLIYRASNLESGVPSRFSGSGSGTDFTLTISSLQPEDFATYYCQQSNEDPWTFGGGTKVEIKRTVAAPSVFIFPPSDEQLKSGTASVVCLLNNFYPREAKVQWKVDNALQSGNSQESVTEQDSKDSTYSLSSTLTLSKADYEKHKVYACEVTHQGLSSPVTKSFNRGECGGGGSEVTLRESGPALVKPTQTLTLTCTFSGFSLSNFGEGLSWIRQPPGKGLEWLAHIYWDDDKRYNPSLKSRLTISKDTSRNQVVLTMTNMDPVDTATYYCARRETVFYWYFDVWGQGTTVTVSSASTKGPSVFPLAPSSKSTSGGTAALGCLVKDYFPEPVTVSWNSGALTSGVHTFPAVLQSSGLYSLSSVVTVPSSSLGTQTYICNVNHKPSNTKVDKKVEPKSCEKTHTCPPCPAPEAAGAPSVFLFPPKPKDTLMISRTPEVTCVVVDVSHEDPEVKFNWYVDGVEVHNAKTKPREEQYNSTYRVVSVLTVLHQDWLNGKEYKCKVSNKALPAPIEKTISKAKGQPREPQVYTLPPSREEMTKNQVSLTCEVKGFYPSDIAVEWESNGQPENNYKTTPPVLDSDGSFFLYSKLTVDKSRWQQGNVFSCSVLHEALHSHYTQKSLSLSPGK
light 1: DIQMTQSPSSLSASVGDRVTITCRASQPIHNHLDWYQQKPGKAPKLLIYFGKNLQEGVPSRFSGSGSGTDFTLTISSLQPEDFATYYCFQYKKGWSFGGGTKVEIKRTVAAPSVFIFPPSDEQLKSGTASVVCLLNNFYPREAKVQWKVDNALQSGNSQESVTEQDSKDSTYSLSSTLTLSKADYEKHKVYACEVTHQGLSSPVTKSFNRGEC
light 2: DIQMTQSPSSLSASVGDRVTITCRASQSVDEEGDSYMNWYQQKPGKAPKLLIYAASNLESGVPSRFSGSGSGTDFTLTISSLQPEDFATYYCQQSNKDPPTFGGGTKVEIKRTVAAPSVFIFPPSDEQLKSGTASVVCLLNNFYPREAKVQWKVDNALQSGNSQESVTEQDSKDSTYSLSSTLTLSKADYEKHKVYACEVTHQGLSSPVTKSFNRGEC
chain 2: EVQLVESGGGLVQPGGSLRLSCAASGFTFSSYAMSWVRQAPGKGLEWVASISSGDTTYYPDSVKGRFTISRDNAKNSLYLQMNSLRAEDTAVYYCARNEGYYFGLTLWGQGTLVTVSSASTKGPSVFPLAPSSKSTSGGTAALGCLVKDYFPEPVTVSWNSGALTSGVHTFPAVLQSSGLYSLSSVVTVPSSSLGTQTYICNVNHKPSNTKVDKKVEPKSC
notes: Tri-Fab-Fc: SFab HC(3) IL-33, DFab LC(1)-HC(2) IL-13/IL-4, SFab LC(3), DFab LC(2), modified Fd(1); EE/RR, LS
Q: For B2, which “fold weaker than the human IL-4 affinity value” (cynomolgus monkey IL-4) is on record?
A: ~6.2 fold

Q: And the “fold of the human IL-13 affinity value” (cynomolgus monkey IL-13 [6])?
A: ≤ 2 fold

Q: What about the “fold IL-4 neutralization activity over dupilumab (monocyte CD23 bioassay)” value (human IL-4) of the same binder?
A: ~10 fold

Q: What about the “fold lower potency than mAb IL4-1040 (monocyte CD23 bioassay)” value (human IL-4) of the same binder?
A: ~3.1 fold

Q: What about the “fold IL-13 neutralization activity over dupilumab (monocyte CD23 bioassay)” value (human IL-13 [7]) of the same binder?
A: 7.9 fold

Q: And the “fold lower potency than IL13-0001 (monocyte CD23 bioassay)” value (human IL-13 [7])?
A: ~2.7 fold

Q: What about the “fold reduced neutralization compared to the human cytokine (monocyte CD23 bioassay)” value (cynomolgus monkey IL-13 [8]) of the same binder?
A: ~4.5 fold

Q: Does B2 bind (mouse IL-4)?
A: no binding (tested: 200 nM)

Q: Does B2 bind (rat IL-4)?
A: no binding (tested: 200 nM)

Q: Does B2 bind (mouse IL-13 [9])?
A: no binding (tested: 200 nM)

Q: Does B2 bind (rat IL-13)?
A: no binding (tested: 200 nM)

Q: Does B2 bind (murine IL-33)?
A: no binding (tested: 200 nM)

Q: Does B2 bind (rat IL-33)?
A: no binding (tested: 200 nM)
